Reference: PMC3005950

Columns and labels:
[1] = target: IL-7Ralpha ECD (Homo sapiens) (UniProt P16871); settings: cited from earlier work
[2] = target: IL-7 receptor alpha chain extracellular domain, glycosylated, IL-7Ralpha (CHO) (UniProt P16871); experiment: SPR; settings: pH 7.4, 298 K, 10 mM HEPES (pH 7.4)
[3] = target: IL-7 receptor alpha chain extracellular domain, nonglycosylated, IL-7Ralpha (EC) (UniProt P16871); experiment: SPR; settings: pH 7.4, 298 K, 10 mM HEPES (pH 7.4)

Substance | Kd [1] [nM] | ΔG^o ([2]; 50 mM NaCl) [kcal/mol] | ΔG^o ([2]; 1 M NaCl) [kcal/mol] | ΔG^o ([3]; 50 mM NaCl) [kcal/mol] | k−1 ([3]; 300 mM NaCl) [s⁻¹] | ΔG^o ([3]; 300 mM NaCl) [kcal/mol]
IL-7 (from UniProt P13232) | 60 | – | – | – | – | –
Interleukin-7 (IL-7) | – | -11.8 | -8.33 | -7.72 | 0.121 | -4.68
